The values that follow are results of earlier work, collected in US20250326839A1, “TREATMENT OF DISEASES RELATED TO COLONY-STIMULATING FACTOR 1 RECEPTOR DYSFUNCTION USING TREM2 AGONISTS” (Vigil Neuroscience, Inc., priority 2020, published 2025).

The target in this data set is T1, TREM2 (Homo sapiens, UniProt Q9NZC2).
T1 sequence (Q9NZC2 19-230): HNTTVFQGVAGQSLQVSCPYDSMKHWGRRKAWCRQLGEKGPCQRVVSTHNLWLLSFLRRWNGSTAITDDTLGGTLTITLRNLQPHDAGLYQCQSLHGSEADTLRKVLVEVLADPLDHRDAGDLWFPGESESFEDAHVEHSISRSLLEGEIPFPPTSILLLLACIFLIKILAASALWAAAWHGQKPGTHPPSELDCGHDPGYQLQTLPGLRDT
The following applies: cited from earlier work; for Binding Signal (fold over 6E7 parental antibody) 1st screen 110 nM or 10 nM: 10 nM Ab concentration (values not marked *).

Numbering of substitutions follows the chain as printed. Names and notes keep the numbering of the source.

B1: V36: 6E7 variant: VH I34L, Q99S; VL L54R, F94Y (antibody, V domains shown)
VH: EVQLVQSGAEVKKPGESLKISCKGSGYSFTSYWLAWVRQMPGKGLEWMGIIYPGDSDTRYSPSFQGQVTISADKSISTAYLQWSSLKASDTAMYFCARSRTFYYDSSDYFDYWGQGTLVTVSS
VL: DIQMTQSPSSVSASVGDRVTITCRASQGISSWLAWYQQKPGKAPKLLIYAASSRQNGVPSRFSGSGSGTDFTLTISSLQPEDFATYFCQQADSYPRTFGQGTKLEIK
Take B1: the “Binding Signal (fold over 6E7 parental antibody) 1st screen 110 nM or 10 nM” value is recorded as 3.38 fold over 6E7 parental antibod, the “Binding Signal (fold over 6E7 parental antibody) 2nd screen 2 nM” value was 4.00 fold over 6E7 parental antibod and the “Binding Signal (fold over 6E7 parental antibody) 2nd screen 10 nM” value was 3.44 fold over 6E7 parental antibod.

B2: V37: 6E7 variant: VH F29H, Q65A, Q99S; VL N56W, F94Y (antibody, V domains shown)
VH: B1 VH with F29H, L34I, Q65A
VL: B1 VL with R54L, N56W
Take B2: the “Binding Signal (fold over 6E7 parental antibody) 1st screen 110 nM or 10 nM” value is 3.46 fold over 6E7 parental antibod, the “Binding Signal (fold over 6E7 parental antibody) 2nd screen 2 nM” value is 3.69 fold over 6E7 parental antibod and the “Binding Signal (fold over 6E7 parental antibody) 2nd screen 10 nM” value is listed as 3.49 fold over 6E7 parental antibod.

B3: V51: 6E7 variant: VH T58V, Q99G, Y112N; VL L54R (antibody, V domains shown)
VH: B1 VH with L34I, T58V, S99G, Y112N
VL: B1 VL with Y94F
Regarding B3, the “Binding Signal (fold over 6E7 parental antibody) 1st screen 110 nM or 10 nM” value is 2.81 fold over 6E7 parental antibod, the “Binding Signal (fold over 6E7 parental antibody) 2nd screen 2 nM” value was 1.83 fold over 6E7 parental antibod and the “Binding Signal (fold over 6E7 parental antibody) 2nd screen 10 nM” value is reported as 3.18 fold over 6E7 parental antibod.

B4: V60: 6E7 variant: VH S28H, T58V, F110S; VL N56R, Q89G (antibody, V domains shown)
VH: B1 VH with S28H, L34I, T58V, S99Q, F110S
VL: B1 VL with R54L, N56R, Q89G, Y94F
B4: the “Binding Signal (fold over 6E7 parental antibody) 1st screen 110 nM or 10 nM” value was 3.26 fold over 6E7 parental antibod, the “Binding Signal (fold over 6E7 parental antibody) 2nd screen 2 nM” value is 3.35 fold over 6E7 parental antibod and the “Binding Signal (fold over 6E7 parental antibody) 2nd screen 10 nM” value is on record as 3.63 fold over 6E7 parental antibod.

B5: V52: 6E7 variant: VH T30E, Q99G; VL N56R, S93R (antibody, V domains shown)
VH: B1 VH with T30E, L34I, S99G
VL: B1 VL with R54L, N56R, S93R, Y94F
As to B5, the “Binding Signal (fold over 6E7 parental antibody) 1st screen 110 nM or 10 nM” value was 3.00 fold over 6E7 parental antibod, the “Binding Signal (fold over 6E7 parental antibody) 2nd screen 2 nM” value was 1.78 fold over 6E7 parental antibod and the “Binding Signal (fold over 6E7 parental antibody) 2nd screen 10 nM” value is 3.09 fold over 6E7 parental antibod.

B6: V61: 6E7 variant: VH T30S, S61N, Q99G; VL Q55V, F94L (antibody, V domains shown)
VH: B1 VH with T30S, L34I, S61N, S99G
VL: B1 VL with R54L, Q55V, Y94L
Take B6: the “Binding Signal (fold over 6E7 parental antibody) 1st screen 110 nM or 10 nM” value was 5.08 fold over 6E7 parental antibod, the “Binding Signal (fold over 6E7 parental antibody) 2nd screen 2 nM” value was 3.63 fold over 6E7 parental antibod and the “Binding Signal (fold over 6E7 parental antibody) 2nd screen 10 nM” value is 5.22 fold over 6E7 parental antibod.

B7: V38: 6E7 variant: VH T30G, T58V; VL L54R, F94H (antibody, V domains shown)
VH: B1 VH with T30G, L34I, T58V, S99Q
VL: B1 VL with Y94H
As to B7, the “Binding Signal (fold over 6E7 parental antibody) 1st screen 110 nM or 10 nM” value is given as 4.34 fold over 6E7 parental antibod, the “Binding Signal (fold over 6E7 parental antibody) 2nd screen 2 nM” value is listed as 3.44 fold over 6E7 parental antibod and the “Binding Signal (fold over 6E7 parental antibody) 2nd screen 10 nM” value was 4.36 fold over 6E7 parental antibod.

B8: V48: 6E7 variant: VH T30G, T58V, Q99M; VL N56T, F94L (antibody, V domains shown)
VH: B1 VH with T30G, L34I, T58V, S99M
VL: B1 VL with R54L, N56T, Y94L
In the case of B8, the “Binding Signal (fold over 6E7 parental antibody) 1st screen 110 nM or 10 nM” value is 2.42 fold over 6E7 parental antibod, the “Binding Signal (fold over 6E7 parental antibody) 2nd screen 2 nM” value is on record as 2.30 fold over 6E7 parental antibod and the “Binding Signal (fold over 6E7 parental antibody) 2nd screen 10 nM” value is 2.54 fold over 6E7 parental antibod.

B9: V40: 6E7 variant: VH T30G, T58V, F110S; VL N56L, S93R (antibody, V domains shown)
VH: B1 VH with T30G, L34I, T58V, S99Q, F110S
VL: B1 VL with R54L, N56L, S93R, Y94F
Turning to B9, the “Binding Signal (fold over 6E7 parental antibody) 1st screen 110 nM or 10 nM” value was 4.48 fold over 6E7 parental antibod, the “Binding Signal (fold over 6E7 parental antibody) 2nd screen 2 nM” value is reported as 3.41 fold over 6E7 parental antibod and the “Binding Signal (fold over 6E7 parental antibody) 2nd screen 10 nM” value was 4.16 fold over 6E7 parental antibod.

B10: V50: 6E7 variant: VH T30G, I50V, F110L; VL L54R, F94L (antibody, V domains shown)
VH: B1 VH with T30G, L34I, I50V, S99Q, F110L
VL: B1 VL with Y94L
B10: the “Binding Signal (fold over 6E7 parental antibody) 1st screen 110 nM or 10 nM” value is recorded as 4.10 fold over 6E7 parental antibod, the “Binding Signal (fold over 6E7 parental antibody) 2nd screen 2 nM” value was 3.39 fold over 6E7 parental antibod and the “Binding Signal (fold over 6E7 parental antibody) 2nd screen 10 nM” value is 4.16 fold over 6E7 parental antibod.

B11: V39: 6E7 variant: VH T30G, S61N, Q99G; VL Q55V, F94S (antibody, V domains shown)
VH: B1 VH with T30G, L34I, S61N, S99G
VL: B1 VL with R54L, Q55V, Y94S
As to B11, the “Binding Signal (fold over 6E7 parental antibody) 1st screen 110 nM or 10 nM” value is recorded as 6.15 fold over 6E7 parental antibod, the “Binding Signal (fold over 6E7 parental antibody) 2nd screen 2 nM” value is given as 5.11 fold over 6E7 parental antibod and the “Binding Signal (fold over 6E7 parental antibody) 2nd screen 10 nM” value is recorded as 5.81 fold over 6E7 parental antibod.

B12: V49: 6E7 variant: VH T30N, I50T, Y60L, Q99S; VL L54R, F94Y (antibody, V domains shown)
VH: B1 VH with T30N, L34I, I50T, Y60L
VL: B1 VL
For B12, the “Binding Signal (fold over 6E7 parental antibody) 1st screen 110 nM or 10 nM” value is 6.51 fold over 6E7 parental antibod, the “Binding Signal (fold over 6E7 parental antibody) 2nd screen 2 nM” value is given as 5.02 fold over 6E7 parental antibod and the “Binding Signal (fold over 6E7 parental antibody) 2nd screen 10 nM” value is 6.58 fold over 6E7 parental antibod.

B13: V62: 6E7 variant: VH T30G, S61A, D108G; VL N56R, Q89G (antibody, V domains shown)
VH: B1 VH with T30G, L34I, S61A, S99Q, D108G
VL: B1 VL with R54L, N56R, Q89G, Y94F
As to B13, the “Binding Signal (fold over 6E7 parental antibody) 1st screen 110 nM or 10 nM” value is 2.49 fold over 6E7 parental antibod, the “Binding Signal (fold over 6E7 parental antibody) 2nd screen 2 nM” value is reported as 1.87 fold over 6E7 parental antibod and the “Binding Signal (fold over 6E7 parental antibody) 2nd screen 10 nM” value was 2.89 fold over 6E7 parental antibod.
